pKd: −log10 of the molar value. Like-named read-outs stand apart in the source and are kept apart here.
How the values were obtained:
Test in all cases: MST
[1] = target: 6xHis-MBP-SpyCas9 (Streptococcus pyogenes) (UniProt Q99ZW2)
[2] = target: 6xHis-MBP-SpyCas9 (Streptococcus pyogenes) (UniProt Q99ZW2); remark: listed apart in the source
[3] = target: 6xHis-MBP-SpyCas9(D10A) (Streptococcus pyogenes) (UniProt Q99ZW2)
[4] = target: 6xHis-MBP-SpyCas9(H840A) (Streptococcus pyogenes) (UniProt Q99ZW2)
[5] = target: 6xHis-MBP-deadSpyCas9 (Streptococcus pyogenes) (UniProt Q99ZW2)
[6] = target: Cas9-gRNA prebound to AcrIIA2b.3 (Streptococcus pyogenes | not stated) (UniProt Q99ZW2)

pKd [1]	pKd [2]	pKd [3]	pKd [4]	pKd [5]	pKd [6]	Substance
7.51	7.64	7.42	5.70	6.04	7.62	AcrIIA1 (natural protein)
–	7.70	–	–	–	–	AcrIIA2b.3 (natural protein)
